Reference: US20240084003A1 (SIMCERE ZAIMING PHARMACEUTICAL, published 2024)

T1: monkey CD22 protein (ACROBiosystems, catalog number SI2-R52Ha) (monkey, UniProt F6W485 20-688)
T1 construct: commercial protein; also called monkey CD22-ECD; monkey CD22-ECD-His
T1 sequence: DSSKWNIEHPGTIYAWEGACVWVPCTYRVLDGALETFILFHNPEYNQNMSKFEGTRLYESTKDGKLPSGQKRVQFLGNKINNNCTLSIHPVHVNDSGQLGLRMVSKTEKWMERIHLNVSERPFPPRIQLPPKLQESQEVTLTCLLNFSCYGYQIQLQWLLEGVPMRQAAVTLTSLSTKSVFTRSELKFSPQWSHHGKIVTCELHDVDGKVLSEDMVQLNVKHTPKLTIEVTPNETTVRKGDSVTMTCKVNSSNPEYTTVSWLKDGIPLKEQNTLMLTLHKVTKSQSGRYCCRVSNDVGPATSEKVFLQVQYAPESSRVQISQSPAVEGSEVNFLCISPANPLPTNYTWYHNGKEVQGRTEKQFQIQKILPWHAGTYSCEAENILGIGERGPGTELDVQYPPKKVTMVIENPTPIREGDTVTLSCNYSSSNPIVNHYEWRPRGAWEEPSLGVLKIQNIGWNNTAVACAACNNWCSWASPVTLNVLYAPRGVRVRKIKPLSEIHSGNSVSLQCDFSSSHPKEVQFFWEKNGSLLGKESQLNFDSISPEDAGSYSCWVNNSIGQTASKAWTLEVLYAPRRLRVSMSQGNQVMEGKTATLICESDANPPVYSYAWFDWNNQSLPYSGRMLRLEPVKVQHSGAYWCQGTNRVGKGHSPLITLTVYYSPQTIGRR

B1: F1.231.15 (antibody, IgG1, V domains shown)
VH: QVQLQQPGAELVKPGASVKLSCKTSGYTFTIYWMQWVKQRPGRGLEWIGRIDPHSGDTHYNENFTTKVTLTVDETSNTAYMHLSGLTSEDSAVYYCARRDYSYYVLDYWGQGTSVTVSS
VL: DVVLTQTPLSLPVSLGDQASISCRSSQSLVHINGDTYLHWYLQKPGQSPKLLIYTVFNRFSGVPDRFSGSGSGTDFTLKISRVEAEDLGAYFCSQSTHVPYTFGGGTKLEIKR
notes: human-murine chimeric IgG1 kappa
B2: F1.105.11 (antibody, human IgG1, kappa, V domains shown)
VH: EVQLQQSGPVLVKPGASVKMSCKASGYTFSDYFMNWVKQSHGKSLEWIGIINSYSGGTSYNQKFKGKATLTVDKSSSTAYMELNSLTSEDSAVYYCARWMDYWGQGTSVTVSS
VL: DVQITQSPSYLAASPGETITINCRTSESISKHLAWYQEKPGKTNKLLIYSGSTLQSGIPSRFSGSGSGTDFTLTISSLEPEDFAMYYCQQHNEYPWTFGGGTKLEIKR
notes: human-murine chimeric IgG1 kappa; VL name legible
B3: F1.267.9 (antibody, human IgG1, kappa, V domains shown)
VH: EVQLQQSGPVLVKPGASVKMSCKASGYTFTDFYMNWAKQSHGKSLEWVGVINPYNGGINYNQKFKGKATLTVDKSSSTAYMEFNSLTSEDSAVYYCARRMEYHAMDYWGQGTSVTVSS
VL: DIVLTQSPASLAVSLGQRATISCRASESVDNYGFDFIHWYQQKPGQPPKLLIYRASNLESGIPARFSGSGSRPDFTLTINPVETDDVATYYCQQSIKDPWTFGGGTKLEIKR
notes: as for B2

Experiments:
[1] = target: T1, monkey CD22 protein (ACROBiosystems, …); assay: ELISA, coated monkey CD22 protein, antibody 0.01 nM
Protocol: (§1) In order to detect the binding activity of CD22 human-murine chimeric antibodies to CD22 protein, the purified human CD22-ECD-His protein obtained in Example 2 was diluted with PBS to a final concentration of 2 μg/mL, and then added to 96-well ELISA plate at 100 μl/well. The plate was sealed with plastic film and incubated overnight at 4° C., the plate was washed 2 times with PBS the next day, and then a blocking solution [PBS+2% (w/w) BSA] was added for blocking at room temperature for 2 hours. […] After incubation at 37° C. for 2 hours, the plate was washed 3 times with PBS. HRP (horseradish peroxidase)-labeled secondary antibody (purchased from Sigma, catalog number: A0170) was added, and incubated at 37° C. for 2 hours, and the plate was washed 5 times with PBS. TMB substrate was added at 50 μl/well, and incubated at room temperature for 30 minutes, then a stop solution (1.0 N HCl) was added at 50 μl/well.
(§2) In order to detect the species cross-binding activity of the chimeric antibodies, an ELISA plate was coated with commercial murine CD22 protein (ACROBiosystems, catalog number: SI2-M52Ha) and monkey CD22 protein (ACROBiosystems, catalog number: SI2-R52Ha), respectively, and the ELISA detection was performed according to the method in Example 5.1.

[2] = target: T1, monkey CD22 protein (ACROBiosystems, …); assay: ELISA, coated monkey CD22 protein, antibody 0.0001 nM
Protocol: as §1, §2

[3] = target: T1, monkey CD22 protein (ACROBiosystems, …); assay: ELISA, coated monkey CD22 protein, antibody 0.1 nM
Protocol: as §1, §2

[4] = target: T1, monkey CD22 protein (ACROBiosystems, …); assay: ELISA, coated monkey CD22 protein, antibody 0.001 nM
Protocol: as §1, §2

[5] = target: T1, monkey CD22 protein (ACROBiosystems, …); assay: ELISA, coated monkey CD22 protein, antibody 100 nM
Protocol: as §1, §2

[6] = target: T2, CD22 on cynomolgus monkey peripheral blood B cells (cynomolgus monkey (Macaca fascicularis)); assay: FACS, cynomolgus PBMC, CD20+ B cells, antibody 100 nM
T2 construct: whole, on cells; also called cynomolgus monkey B cells
Description: (§3) The monkey peripheral blood mononuclear cells were extracted from fresh cynomolgus monkey peripheral blood (purchased from Shanghai Medicilon Inc.) according to the instructions of Ficoll-Paque Plus (purchased from GE Healthcare, catalog number: 171440-02). After the cell suspension was centrifuged, the cells were resuspended in PBS containing 1% BSA, and then the cells were counted. At the same time, the murine antibody Brilliant Violet 605 anti-human CD20 (catalog number: 302334, purchased from Biolegend) with monkey CD20 cross-binding activity and the chimeric antibodies to be tested (1 nM, 10 nM and 100 nM) were added and incubated at room temperature for 1 hour. After washing the cells three times, APC-labeled secondary antibody anti-human IgG Fc (catalog number: 409306, purchased from Biolegend) was added. After incubation at room temperature in the dark for 30 minutes, the cells were washed 5 times, gently resuspended with PBS containing 1% BSA, and detected and analyzed by FACS (FACS Canto™, purchased from BD Company). Wherein CD20 was used as a marker of B cells, and the CD20-positive B cell population was gated, the proportion of chimeric antibody positive cells was analyzed, and the proportion of chimeric antibody positive cell population to B cell population was calculated after treatments with the chimeric antibodies at the concentrations of 100 nM, 10 nM and 1 nM, respectively. The scatter plot of double-stained cells by Brilliant Violet 605-labeled CD20 and APC secondary antibody indirectly labeled chimeric antibody is shown in FIG. 10A-FIG. 10B (under the condition of 1 nM of chimeric antibody concentration).

[7] = target: T2, CD22 on cynomolgus monkey peripheral …; assay: FACS, cynomolgus PBMC, CD20+ B cells, antibody 10 nM
Description: as §3

[8] = target: T1, monkey CD22 protein (ACROBiosystems, …); assay: ELISA, coated monkey CD22 protein, antibody 0.00001 nM
Protocol: as §1, §2

[9] = target: T1, monkey CD22 protein (ACROBiosystems, …); assay: ELISA, coated monkey CD22 protein, antibody 10 nM
Protocol: as §1, §2

[10] = target: T2, CD22 on cynomolgus monkey peripheral …; assay: FACS, cynomolgus PBMC, CD20+ B cells, antibody 1 nM
Description: as §3

Binder | OD450 [1] | OD450 [2] | OD450 [3] | OD450 [4] | OD450 [5] | Proportion of chimeric antibody positive cells to B cells (%) [6] | Proportion of chimeric antibody positive cells to B cells (%) [7] | OD450 [8] | OD450 [9] | Proportion of chimeric antibody positive cells to B cells (%) [10]
B1 | 0.09 OD450 | 0.06 OD450 | 0.17 OD450 | 0.06 OD450 | 0.45 OD450 | 29% | 16% | 0.06 OD450 | 0.31 OD450 | 11%
B2 | 0.68 OD450 | 0.07 OD450 | 1.31 OD450 | 0.17 OD450 | 1.29 OD450 | 69% | 59% | 0.06 OD450 | 1.4 OD450 | 46%
B3 | 0.27 OD450 | 0.07 OD450 | 1.07 OD450 | 0.1 OD450 | 2.27 OD450 | 95% | 91% | 0.06 OD450 | 1.89 OD450 | 39%
